Data set [1] concerns the target BC1280 (CapP, CalY-assisting polymerization protein), full-length recombinant protein (Bacillus cereus ATCC14579) (UniProt Q81GC7). In words: native gel or EMSA.
The data set “native gel or EMSA” deals with the molecule itself. Put plainly: native gel or EMSA. (A gel shift assay detects complexes by their altered migration in electrophoresis.)

By stoichiometry N is commonly meant a count of units in the complex or per binding partner.

For the molecule “BC1280 (CapP, CalY-assisting polymerization protein), full-length recombinant protein (from UniProt Q81GC7 1-279) (natural protein)”, the stoichiometry N in data set [1] turned out to be 15 subunits.

B1: N-domain39-190 of BC1280 (domain or fragment, Bacillus cereus ATCC14579, UniProt Q81GC7 39-190, looked up)
chain: AAFIHETKVEATLSTAIIFPKTVNTLKEQSEKHKQFIEREYGTMKGKLKATSIEEIKQAISVWQQGREKIVAEKEALQNVYTEIEAPYNQIQEELKVNKDESMQQVSIYVNEGFRSIKEKRDYIEKEISLKAIDEQIQALQQQLNVAIEAEG
On to B1, for which the “stoichiometry N” value in the data set “native gel or EMSA” is roughly 15 subunits.

The values above are taken from publication doi:10.1101/2024.02.27.582368 (bioRxiv, 2024).
